B1: Mitogen-activated protein kinase kinase kinase 1 (Rattus norvegicus (Rat)), Q62925 (parent)
chain: MAAAAGDRASSSGFPGAAAASPEAGGGGGALQGSGAPAAGAGLLRETGSAGRERADWRRQQLRKVRSVELDQLPEQPLFLTASPPCPSTSPSPEPADAAAGASGFQPAAGPPPPGAASRCGSHSAELAAARDSGARSPAGAEPPSAAAPSGREMENKETLKGLHKMDDRPEERMIREKLKATCMPAWKHEWLERRNRRGPVVVKPIPIKGDGSEMSNLAAELQGEGQAGSAAPAPKGRRSPSPGSSPSGRSGKPESPGVRRKRVSPVPFQSGRITPPRRAPSPDGFSPYSPEETSRRVNKVMRARLYLLQQIGPNSFLIGGDSPDNKYRVFIGPQNCSCGRGTFCIHLLFVMLRVFQLEPSDPMLWRKTLKNFEVESLFQKYHSRRSSRIKAPSRNTIQKFVSRMSNCHTLSSSSTSTSSSENSIKDEEEQMCPICLLGMLDEESLTVCEDGCRNKLHHHCMSIWAEECRRNREPLICPLCRSKWRSHDFYSHELSSPVDSPTSLRGVQQPSSPQQPVAGSQRRNQESNFNLTHYGTQQIPPAYKDLAEPWIQAFGMELVGCLFSRNWNVREMALRRLSHDVSGALLLANGESTGTSGGGSGGSLSAGAASGSSQPSISGDVVEAFCSVLSIVCADPVYKVYVAALKTLRAMLVYTPCHSLAERIKLQRLLRPVVDTILVKCADANSRTSQLSISTLLELCKGQAGELAVGREILKAGSIGVGGVDYVLSCILGNQAESNNWQELLGRLCLIDRLLLEISAEFYPHIVSTDVSQAEPVEIRYKKLLSLLAFALQSIDNSHSMVGKLSRRIYLSSARMVTTVPPLFSKLVTMLSASGSSHFARMRRRLMAIADEVEIAEVIQLGSEDTLDGQQDSSQALAPPRYPESSSLEHTAHVEKTGKGLKATRLSASSEDISDRLAGVSVGLPSSATTEQPKPTVQTKGRPHSQCLNSSPLSPPQLMFPAISAPCSSAPSVPAGSVTDASKHRPRAFVPCKIPSASPQTQRKFSLQFQRTCSENRDSEKLSPVFTQSRPPPSSNIHRAKASRPVPGSTSKLGDASKNSMTLDLNSASQCDDSFGSGSNSGSAVIPSEETAFTPAEDKCRLDVNPELNSSIEDLLEASMPSSDTTVTFKSEVAVLSPEKAESDDTYKDDVNHNQKCKEKMEAEEEEALAIAMAMSASQDALPIVPQLQVENGEDIIIIQQDTPETLPGHTKANEPYREDTEWLKGQQIGLGAFSSCYQAQDVGTGTLMAVKQVTYVRNTSSEQEEVVEALREEIRMMSHLNHPNIIRMLGATCEKSNYNLFIEWMAGASVAHLLSKYGAFKESVVINYTEQLLRGLSYLHENQIIHRDVKGANLLIDSTGQRLRIADFGAAARLASKGTGAGEFQGQLLGTIAFMAPEVLRGQQYGRSCDVWSVGCAIIEMACAKPPWNAEKHSNHLALIFKIASATTAPSIPSHLSPGLRDVALRCLELQPQDRPPSRELLKHPVFRTTW

Variants of: B1
Conditions: with ube2n_human UBE2N

Variant	effect of a mutation on the interaction
L438A;M440A	disrupting interaction
